Measured values as given in doi:10.1101/2021.09.16.460650 (bioRxiv, 2021).

Target: the molecule itself
Test: non-reducing SDS-PAGE with western blot

| Protein | stoichiometry N |
| --- | --- |
| N-terminally arginylated calreticulin (natural protein, human (endogenous in DLD-1), UniProt P27797 18-417, looked up, arginyl group added at the mature (signal sequence removed) NH2-terminus, Glu-18) REPAVYFKEQFLDGDGWTSRWIESKHKSDFGKFVLSSGKFYGDEEKDKGLQTSQDARFYALSASFEPFSNKGQTLVVQFTVKHEQNIDCGGGYVKLFPNSLDQTDMHGDSEYNIMFGPDICGPGTKKVHVIFNYKGKNVLINKDIRCKDDEFTHLYTLIVRPDNTYEVKIDNSQVESGSLEDDWDFLPPKKIKDPDASKPEDWDERAKIDDPTDSKPEDWDKPEHIPDPDAKKPEDWDEEMDGEWEPPVIQNPEYKGEWKPRQIDNPDYKGTWIHPEIDNPEYSPDPSIYAYDNFGVLGLDLWQVKSGTIFDNFLITNDEAYAEEFGNETWGVTKAAEKQMKDKQDEEQRLKEEEEDKKRKEEEEAEDKEDDEDKDEDEEDEEDKEEDEEEDVPGQAKDEL | 2 |
| calreticulin (natural protein, human (endogenous in DLD-1), UniProt P27797 18-417, looked up) EPAVYFKEQFLDGDGWTSRWIESKHKSDFGKFVLSSGKFYGDEEKDKGLQTSQDARFYALSASFEPFSNKGQTLVVQFTVKHEQNIDCGGGYVKLFPNSLDQTDMHGDSEYNIMFGPDICGPGTKKVHVIFNYKGKNVLINKDIRCKDDEFTHLYTLIVRPDNTYEVKIDNSQVESGSLEDDWDFLPPKKIKDPDASKPEDWDERAKIDDPTDSKPEDWDKPEHIPDPDAKKPEDWDEEMDGEWEPPVIQNPEYKGEWKPRQIDNPDYKGTWIHPEIDNPEYSPDPSIYAYDNFGVLGLDLWQVKSGTIFDNFLITNDEAYAEEFGNETWGVTKAAEKQMKDKQDEEQRLKEEEEDKKRKEEEEAEDKEDDEDKDEDEEDEEDKEEDEEEDVPGQAKDEL | 2 |
